Reference: paper PMC10397247
One block for each binder: values may come before it.

Assays:
[1] = biological target: T1, 4H3497-bN; assay: two-hybrid library CCNG1;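 also: natural log of median RNA to DNA barcode read ratio; higher means stronger binding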
T1 chain: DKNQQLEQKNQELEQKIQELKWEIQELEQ

[2] = biological target: T2, 4H3298-bN; assay: two-hybrid library CCNG1;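 also: natural log of median RNA to DNA barcode read ratio; higher means stronger binding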
T2 chain: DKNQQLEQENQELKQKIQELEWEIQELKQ

[3] = biological target: T3, 4H3628-bN; assay: two-hybrid library CCNG1;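 also: natural log of median RNA to DNA barcode read ratio; higher means stronger binding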
T3 chain: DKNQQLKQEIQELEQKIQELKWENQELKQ

[4] = biological target: T4, 4H626-bN; assay: two-hybrid library CCNG1;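 also: natural log of median RNA to DNA barcode read ratio; higher means stronger binding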
T4 chain: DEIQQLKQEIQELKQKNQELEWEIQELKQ

[5] = biological target: T5, 4H906-bN; assay: two-hybrid library CCNG1;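 also: natural log of median RNA to DNA barcode read ratio; higher means stronger binding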
T5 chain: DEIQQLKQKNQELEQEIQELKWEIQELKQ

[6] = biological target: T6, 4H591-bN; assay: two-hybrid library CCNG1;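 also: natural log of median RNA to DNA barcode read ratio; higher means stronger binding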
T6 chain: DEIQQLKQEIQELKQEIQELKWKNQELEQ

[7] = biological target: T7, 4H3926-bN; assay: two-hybrid library CCNG1
T7 chain: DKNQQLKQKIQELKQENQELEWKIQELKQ

[8] = biological target: T8, 4H3613-bN; assay: two-hybrid library CCNG1
T8 chain: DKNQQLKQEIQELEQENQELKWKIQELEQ

[9] = biological target: T9, 4H3462-bN; assay: two-hybrid library CCNG1
T9 chain: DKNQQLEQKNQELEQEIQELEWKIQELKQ

[10] = biological target: T10, P2-AA-1HAA-I; assay: two-hybrid library CCmax; details: mean of both orientations
T10 chain: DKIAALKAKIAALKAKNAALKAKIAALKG

[11] = biological target: T11, P2-AA-1HAA-V; assay: two-hybrid library CCmax; details: mean of both orientations
T11 chain: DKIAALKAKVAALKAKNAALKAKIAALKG

[12] = biological target: T12, P2-AA-1HAA-T; assay: two-hybrid library CCmax; details: mean of both orientations
T12 chain: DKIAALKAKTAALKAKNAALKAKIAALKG

[13] = biological target: T13, P2-AA; assay: two-hybrid library CCmax; details: mean of both orientations
T13 chain: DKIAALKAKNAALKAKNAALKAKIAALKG

[14] = biological target: T14, P2-AA-1HAA-E; assay: two-hybrid library CCmax; details: mean of both orientations
T14 chain: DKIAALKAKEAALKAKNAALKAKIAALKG

[15] = biological target: T15, P2-AA-1HAA-D; assay: two-hybrid library CCmax; details: mean of both orientations
T15 chain: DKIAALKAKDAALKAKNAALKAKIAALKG

[16] = biological target: T16, 4H949-bA; assay: two-hybrid library CCNG1
T16 chain: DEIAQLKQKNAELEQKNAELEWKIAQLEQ

[17] = biological target: T17, 4H932-bA; assay: two-hybrid library CCNG1
T17 chain: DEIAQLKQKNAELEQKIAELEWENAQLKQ

[18] = biological target: T18, 4H796-bA; assay: two-hybrid library CCNG1
T18 chain: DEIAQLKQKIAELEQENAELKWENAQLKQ

[19] = biological target: T19, P7SHb; assay: two-hybrid library CCNG1
T19 chain: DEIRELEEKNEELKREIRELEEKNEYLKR

[20] = biological target: T20, 4H56-bA; assay: two-hybrid library CCNG1
T20 chain: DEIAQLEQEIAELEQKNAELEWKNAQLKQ

[21] = biological target: T21, 4H730-bA; assay: two-hybrid library CCNG1
T21 chain: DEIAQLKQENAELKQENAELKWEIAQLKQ

[22] = biological target: T22, 4H3817-bN; assay: two-hybrid library CCNG1
T22 chain: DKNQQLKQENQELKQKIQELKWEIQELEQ

[23] = biological target: T23, 4H570-bN; assay: two-hybrid library CCNG1
T23 chain: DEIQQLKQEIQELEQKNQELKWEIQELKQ

[24] = biological target: T24, 4H584-bN; assay: two-hybrid library CCNG1
T24 chain: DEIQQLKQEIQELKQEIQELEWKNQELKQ

[25] = biological target: T25, 4H619-bN; assay: two-hybrid library CCNG1
T25 chain: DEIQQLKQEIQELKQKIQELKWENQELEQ

[26] = biological target: T26, 4H3638-bN; assay: two-hybrid library CCNG1
T26 chain: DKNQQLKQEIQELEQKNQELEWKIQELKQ

[27] = biological target: T27, 4H3631-bN; assay: two-hybrid library CCNG1
T27 chain: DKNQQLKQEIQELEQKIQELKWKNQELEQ

[28] = biological target: T28, 4H850-bN; assay: two-hybrid library CCNG1
T28 chain: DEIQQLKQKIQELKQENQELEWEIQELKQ

[29] = biological target: T29, 4H3172-bN; assay: two-hybrid library CCNG1
T29 chain: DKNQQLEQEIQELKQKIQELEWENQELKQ

[30] = biological target: T30, 4H3974-bN; assay: two-hybrid library CCNG1
T30 chain: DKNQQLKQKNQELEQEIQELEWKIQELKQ

[31] = biological target: T31, 4H3414-bN; assay: two-hybrid library CCNG1
T31 chain: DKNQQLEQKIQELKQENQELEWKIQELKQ

interaction score [1]: -1.06
interaction score [2]: -2.82
interaction score [3]: -0.916
interaction score [4]: -1.27
interaction score [5]: -0.217
interaction score [6]: -0.882
interaction score [7]: -1.32
interaction score [8]: -1.42
interaction score [9]: -0.0887
Binder: DKNQQLEQENQELKQKIQELEWEIQELKQ [4H3298-bN]

interaction score [22]: -0.519
interaction score [23]: -0.602
interaction score [24]: -0.681
interaction score [25]: 0.271
interaction score [5]: -1.5
interaction score [26]: -0.362
interaction score [27]: 1.27
interaction score [28]: -0.789
interaction score [29]: -0.109
interaction score [30]: -0.234
interaction score [31]: 0.0803
Binder: DKNQQLEQEIQELKQKIQELEWENQELKQ [4H3172-bN]

Further lines, the binder ahead of its results:

Binder: DEIAALEAEVAALEAENAALEAEIAALEG [P1-AA-1HAA-V]
interaction score [10]: 2.11
interaction score [11]: 2.01
interaction score [12]: 2.16
interaction score [13]: 2.01
interaction score [14]: 1.98
interaction score [15]: 1.95

Binder: DEIAQLEQEIAELEQKNAELEWKNAQLKQ [4H56-bA]
interaction score [16]: -0.628
interaction score [17]: -0.898
interaction score [18]: -0.775
interaction score [19]: 0.584
interaction score [20]: -0.593
interaction score [21]: -1.15
